Results from article PMC4381287, “Structural characterization of the late competence protein ComFB from Bacillus subtilis” (Bioscience Reports, 2014).

Biological target: the molecule itself
Experiment: SEC; Superdex75 10/300 column, calibrated with standards of known molecular weight; wild type and variants at similar concentrations

B1: late competence protein ComFB from Bacillus subtilis, N-terminally 6xHis-tagged, wild type (natural protein, B. subtilis)
chain: MLVNSKEIVMKELLDRYMDQLHMACTCQVCQNDVLALSLNKVSPSYVTDFKKIAYTKAELVDKQKNTAMLVILAESAAVVSESPSDLCQTKQEEAFIN
notes: ComFB, second protein of the comF operon of Bacillus subtilis, amplified from chromosomal DNA of strain PY79; the purified tagged monomer is 13.5 kDa; the crystal model holds residues 1-91 (chain A); By LC-ESI MS the first methionine is removed; Each subunit holds one Zn2+ ion (C25, C27, C30, C88); The histidine tag was uncleaved in the crystals; also called His6-ComFB; native ComFB; source: E. …
  stoichiometry N: 2
